For three molecules, binding result and Kd results are on record in publication PMC4113749 (Toxins, 2014).

B1: TcdA^1102–1847 (intermediate domain of toxin A) (domain or fragment)
chain: SAGIPSLVNNELILHDKATSVVNYFNHLSESKKYGPLKTEDDKILVPIDDLVISEIDFNNNSIKLGTCNILAMEGGSGHTVTGNIDHFFSSPSISSHIPSLSIYSAIGIETENLDFSKKIMMLPNAPSRVFWWETGAVPGLRSLENDGTRLLDSIRDLYPGKFYWRFYAFFDYAITTLKPVYEDTNIKIKLDKDTRNFIMPTITTNEIRNKLSYSFDGAGGTYSLLLSSYPISTNINLSKDDLWIFNIDNEVREISIENGTIKKGKLIKDVLSKIDINKNKLIIGNQTIDFSGDIDNKDRYIFLTCELDDKISLIIEINLVAKSYSLLLSGDKNYLISNLSNTIEKINTLGLDSKNIAYNYTDESNNKYFGAISKTSQKSIIHYKKDSKNILEFYNDSTLEFNSKDFIAEDINVFMKDDINTITGKYYVDNNTDKSIDFSISLVSKNQVKVNGLYLNESVYSSYLDFVKNSDGHHNTSNFMNLFLDNISFWKLFGFENINFVIDKYFTLVGKTNLGYVEFICDNNKNIDIYFGEWKTSSSKSTIFSGNGRNVVVEPIYNPDTGEDISTSLDFSYEPLYGIDRYINKVLIAPDLYTSLININTNYYSNEYYPEIIVLNPNTFHKKVNINLDSSSFEYKWSTEGSDFILVRYLEESNKKILQKIRIKGILSNTQSFNKMSIDFKDIKKLSLGYIMSNFKSFNSENELDRDHLGFKIIDNKTYYYDEDSKLVKGLININNSLFYFDPIE
B2: TcdA^1–1874-EGFP (domain or fragment)
chain: MSLISKEELIKLAYSIRPRENEYKTILTNLDEYNKLTTNNNENKYLQLKKLNESIDVFMNKYKTSSRNRALSNLKKDILKEVILIKNSNTSPVEKNLHFVWIGGEVSDIALEYIKQWADINAEYNIKLWYDSEAFLVNTLKKAIVESSTTEALQLLEEEIQNPQFDNMKFYKKRMEFIYDRQKRFINYYKSQINKPTVPTIDDIIKSHLVSEYNRDETVLESYRTNSLRKINSNHGIDIRANSLFTEQELLNIYSQELLNRGNLAAASDIVRLLALKNFGGVYLDVDMLPGIHSDLFKTISRPSSIGLDRWEMIKLEAIMKYKKYINNYTSENFDKLDQQLKDNFKLIIESKSEKSEIFSKLENLNVSDLEIKIAFALGSVINQALISKQGSYLTNLVIEQVKNRYQFLNQHLNPAIESDNNFTDTTKIFHDSLFNSATAENSMFLTKIAPYLQVGFMPEARSTISLSGPGAYASAYYDFINLQENTIEKTLKASDLIEFKFPENNLSQLTEQEINSLWSFDQASAKYQFEKYVRDYTGGSLSEDNGVDFNKNTALDKNYLLNNKIPSNNVEEAGSKNYVHYIIQLQGDDISYEATCNLFSKNPKNSIIIQRNMNESAKSYFLSDDGESILELNKYRIPERLKNKEKVKVTFIGHGKDEFNTSEFARLSVDSLSNEISSFLDTIKLDISPKNVEVNLLGCNMFSYDFNVEETYPGKLLLSIMDKITSTLPDVNKNSITIGANQYEVRINSEGRKELLAHSGKWINKEEAIMSDLSSKEYIFFDSIDNKLKAKSKNIPGLASISEDIKTLLLDASVSPDTKFILNNLKLNIESSIGDYIYYEKLEPVKNIIHNSIDDLIDEFNLLENVSDELYELKKLNNLDEKYLISFEDISKNNSTYSVRFINKSNGESVYVETEKEIFSKYSEHITKEISTIKNSIITDVNGNLLDNIQLDHTSQVNTLNAAFFIQSLIDYSSNKDVLNDLSTSVKVQLYAQLFSTGLNTIYDSIQLVNLISNAVNDTINVLPTITEGIPIVSTILDGINLGAAIKELLDEHDPLLKKELEAKVGVLAINMSLSIAATVASIVGIGAEVTIFLLPIAGISAGIPSLVNNELILHDKATSVVNYFNHLSESKKYGPLKTEDDKILVPIDDLVISEIDFNNNSIKLGTCNILAMEGGSGHTVTGNIDHFFSSPSISSHIPSLSIYSAIGIETENLDFSKKIMMLPNAPSRVFWWETGAVPGLRSLENDGTRLLDSIRDLYPGKFYWRFYAFFDYAITTLKPVYEDTNIKIKLDKDTRNFIMPTITTNEIRNKLSYSFDGAGGTYSLLLSSYPISTNINLSKDDLWIFNIDNEVREISIENGTIKKGKLIKDVLSKIDINKNKLIIGNQTIDFSGDIDNKDRYIFLTCELDDKISLIIEINLVAKSYSLLLSGDKNYLISNLSNTIEKINTLGLDSKNIAYNYTDESNNKYFGAISKTSQKSIIHYKKDSKNILEFYNDSTLEFNSKDFIAEDINVFMKDDINTITGKYYVDNNTDKSIDFSISLVSKNQVKVNGLYLNESVYSSYLDFVKNSDGHHNTSNFMNLFLDNISFWKLFGFENINFVIDKYFTLVGKTNLGYVEFICDNNKNIDIYFGEWKTSSSKSTIFSGNGRNVVVEPIYNPDTGEDISTSLDFSYEPLYGIDRYINKVLIAPDLYTSLININTNYYSNEYYPEIIVLNPNTFHKKVNINLDSSSFEYKWSTEGSDFILVRYLEESNKKILQKIRIKGILSNTQSFNKMSIDFKDIKKLSLGYIMSNFKSFNSENELDRDHLGFKIIDNKTYYYDEDSKLVKGLININNSLFYFDPIEFNLVTGWQTINGKKYYFDINTGAALTS
B3: isolated TcdA CROPs (TcdA^1875–2710) (domain or fragment)
chain: YKIINGKHFYFNNDGVMQLGVFKGPDGFEYFAPANTQNNNIEGQAIVYQSKFLTLNGKKYYFDNNSKAVTGWRIINNEKYYFNPNNAIAAVGLQVIDNNKYYFNPDTAIISKGWQTVNGSRYYFDTDTAIAFNGYKTIDGKHFYFDSDCVVKIGVFSTSNGFEYFAPANTYNNNIEGQAIVYQSKFLTLNGKKYYFDNNSKAVTGLQTIDSKKYYFNTNTAEAATGWQTIDGKKYYFNTNTAEAATGWQTIDGKKYYFNTNTAIASTGYTIINGKHFYFNTDGIMQIGVFKGPNGFEYFAPANTDANNIEGQAILYQNEFLTLNGKKYYFGSDSKAVTGWRIINNKKYYFNPNNAIAAIHLCTINNDKYYFSYDGILQNGYITIERNNFYFDANNESKMVTGVFKGPNGFEYFAPANTHNNNIEGQAIVYQNKFLTLNGKKYYFDNDSKAVTGWQTIDGKKYYFNLNTAEAATGWQTIDGKKYYFNLNTAEAATGWQTIDGKKYYFNTNTFIASTGYTSINGKHFYFNTDGIMQIGVFKGPNGFEYFAPANTDANNIEGQAILYQNKFLTLNGKKYYFGSDSKAVTGLRTIDGKKYYFNTNTAVAVTGWQTINGKKYYFNTNTSIASTGYTIISGKHFYFNTDGIMQIGVFKGPDGFEYFAPANTDANNIEGQAIRYQNRFLYLHDNIYYFGNNSKAATGWVTIDGNRYYFEPNTAMGANGYKTIDNKNFYFRNGLPQIGVFKGSNGFEYFAPANTDANNIEGQAIRYQNRFLHLLGKIYYFGNNSKAVTGWQTINGKVYYFMPDTAMAAAGGLFEIDGVIYFFGVDGVKAPGIYG

Holding throughout (details): both partners purified
Test [1] deals with GST-fused TcdA CROPs (combined repetitive oligopeptides of Clostridium difficile toxin A) (Clostridium difficile (strain VPI 10463), UniProt P16154 1875-2710). Kind of test: pull-down.
A further test addresses recombinant Rac1 (UniProt P63000 1-192). Kind of test: MST.
The target of the test “TcdA^1–1874-EGFP” is B2. Put plainly: MST.

For B1, the binding result in test [1] is given as “binds”.
Consider B2, for which, in the test with recombinant Rac1, the Kd (as a rule, the free concentration of one partner at which half of the binding sites on the other are occupied at equilibrium, for simple one-to-one binding) is 3.32 ± 0.36 µM.
In turn, B3 yielded a Kd with TcdA^1–1874-EGFP of 1.44 ± 0.07 µM.
